Experimental data: patent publication US11697815B2, “Regulation of gene expression through aptamer-modulated polyadenylation” (MeiraGTx UK II Limited, priority 2016, dated 2023)
Numbering of substitutions follows the chain as printed.

Experiments:
Format in all cases: cell-based
[1] = test system: firefly luciferase expression; experiment: Firefly luciferase assay of HEK 293 cells transfected with U1_Gua riboswitch constructs, with or without guanine; conditions: for fold increase of luciferase activity upon guanine treatment: 500 μM guanine
Text: Plasmid constructs: The EGFP gene in pEGFP-C1 vector was replaced with firefly luciferase gene coding sequence to generate a pFLuc vector that contains an SV40 early polyadenylation signal sequence. Oligos containing either wild type or mutant U1 binding site from the 5′ splice site of human DHFR exon 2 and xpt-guanine aptamer sequence followed by the complementary sequence of the last 7 nt of the U1 site sequence were synthesized (IDT) and cloned into the pFLuc vector using the Gibson cloning strategy and kit (NEB).
Transfection and aptamer ligand treatment: HEK 293 cells were transfected as described in Example 1. Four hours after transfection, the media was aspirated, and new media with or without 500 μM guanine was added.
Firefly luciferase assay of cultured cells: Twenty-four hours after the media change, the plates were removed from the incubator, and equilibrated to RT for several minutes on a lab bench, then aspirated. Glo-lysis buffer (Promega, 100 uL, RT) was added, and the plates allowed to remain at RT for at least 5 minutes. Then, the well contents were mixed by 50 uL trituration, and 20 uL of each sample was mixed with 20 μL of bright-glo reagent (Promega) that had been diluted to 10% in glo-lysis buffer. The 96 wells were spaced on an opaque white 384-well plate. Following a 5 min incubation at RT, luminescence was measured using a Tecan machine with 500 mSec read time. The luciferase activity was expressed as mean relative light unit (RLU)±S.D.
Plasmid constructs: SV40 early polyadenylation sequence was replaced with human beta globin polyA sequence in pFLuc vector to generate pFLuc_HBGPA. Oligos containing either wild type or mutant U1 binding site from 5′ ss of human DHFR exon 2 and xpt-guanine aptamer sequence followed by the complementary sequence of last 7 nt of U1 site sequence were synthesized (IDT) and cloned into pFLuc_HBGPA vector using Gibson cloning strategy and kit (NEB).
Transfection and luciferase assay were as described in Example 7.

[2] = test system: Renilla luciferase expression; experiment: Renilla luciferase assay of HEK 293 cells transfected with U1_theo riboswitch constructs, with or without theophylline
Protocol: Transfection: 3.5×10^4 HEK 293 cells were plated in a 96-well flat bottom plate the day before transfection. Plasmid DNA (500 ng) was added to a tube or a 96-well U-bottom plate. Separately, TransIT-293 reagent (Mirus; 1.4 μl) was added to 50 μl Opti-mem I media (Life Technologies), and allowed to sit for 5 minutes at room temperature (“RT”). Then, 50 μl of this diluted transfection reagent was added to the DNA, mixed, and incubated at RT for 20 min. Finally, 7 μl of this solution was added to a well of cells in the 96-well plate.
Renilla luciferase assay of cultured cells: 24 hours after the media change, plates were removed from the incubator, and equilibrated to RT for several minutes on a lab bench, and the media aspirated. Glo-lysis buffer (Promega, 100 μl, RT) was added, and the plates allowed to remain at room temp for at least 5 minutes. Then, the well contents were mixed by 50 μl trituration, and 20 μl of each well was mixed with 20 μl of Renilla-glo reagent in a solid-white 384-well plate. Ten minutes later, luminescence was measured using a Tecan machine with 500 msec read time. The luciferase activity was expressed as mean relative light unit (RLU)±SD.
Oligonucleotides containing either the full length of sequences of the stem from the stem-loop structure and theophylline aptamer or the truncated sequences of the stem, were synthesized (IDT) and cloned into pRL-SV40 vector using the Gibson Assembly Cloning Kit (NEB). Construct sequences were verified by DNA sequencing (Genewiz).
Transfection and aptamer ligand treatment: HEK 293 cells were transfected as described in Example 1. Four hours after transfection, the media was aspirated, and new media with or without 3 mM theophylline was added. A Renilla luciferase assay was performed 20 to 24 hours after theophylline treatment as described in Example 1. The induction fold was expressed as the quotient of luciferase activity obtained in the presence of aptamer ligand divided by the value obtained in the absence of the aptamer ligand.
Oligos containing 4 copies of the U1_theo_8_1 sequence in tandem were synthesized (IDT) and cloned using Gibson strategy and cloning kit (NEB). HEK 293 cells were transfected and Renilla luciferase assay was performed as described in Example 4.

[3] = test system: Renilla luciferase expression; experiment: as above; remark: listed apart in the source

B1: U1_Gua_2: U1 site linked with xpt-guanine aptamer, 110 nt upstream of SV40 early poly(A) in pFLuc (nucleic acid)
DNA: TCATAAAGGCCAAGAAGGGCGGAAAGATCGCCGTGTAAGCCATACCACATTTGTAGAGGTTTTACTTGCTTTAAAAAACCTCCCACACCTAAGGTAATGTATAATCGCGTGGATATGGCACGCAAGTTTCTACCGGGCACCGTAAATGTCCGACTACATTACCCCCCTGAACCTGAAACATAAAATGAATGCAATTGTTGTTGTTAACTTGTTTATTGCAGCTTATAATGGTTACAAATAAAGCAATAGCATCACAAATTTCACAAATAAAGCATTTTTTTCACTGCATTCTAGTTGTGGTTTGTCCAAACTCATCAATGTATCTTAA
modifications: in pFLuc; U1_Gua_2 wt in pFLuc
notes: U1 site linked with xpt-guanine aptamer, 110 nt upstream of SV40 early poly(A) in pFLuc
fold increase of luciferase activity upon guanine treatment ([1]; SV40 early poly(A) signal): 2.0 fold

B2: U1_theo_8_1: sequential stem mutation of U1_theo_8 in pRL-SV40 (nucleic acid)
DNA: TCAAATCGTTCGTTGAGCGAGTTCTCAAAAATGAACAATAATTCTAGAGCGGCCGCTTCGAGCAGACATGATAAGATACATTGATGAGTTTGGACAAACCAAACCCAGGTAAGTGATACCAGCCGAAAGGCCCTTGGCAGCACTTACCTGGACAACTAGAATGCAGTGAAAAAAATGCTTTATTTGTGAAATTTGTGATGCTATTGCTTTATTTGTAACCATTATAAGCTGCAATAAACAAGTTAACAACAAC
modifications: in pRL-SV40; U1_theo_8_1 in pRL-SV40
induction fold of luciferase activity (theophylline treated / untreated) ([2]; 3 mM theophylline, 20 to 24 hours): 1.8 fold

B3: U1_Gua_1: DHFR exon 2 5′ splice site U1 site linked with xpt-guanine aptamer, 149 nt upstream of SV40 early poly(A) in pFLuc (nucleic acid)
DNA: TCATAAAGGCCAAGAAGGGCGGAAAGATCGCCGTGTAAGCCATACCACATTAAGGTAATGTATAATCGCGTGGATATGGCACGCAAGTTTCTACCGGGCACCGTAAATGTCCGACTACATTACTGTAGAGGTTTTACTTGCTTTAAAAAACCTCCCACACCTCCCCCTGAACCTGAAACATAAAATGAATGCAATTGTTGTTGTTAACTTGTTTATTGCAGCTTATAATGGTTACAAATAAAGCAATAGCATCACAAATTTCACAAATAAAGCATTTTTTTCACTGCATTCTAGTTGTGGTTTGTCCAAACTCATCAATGTATCTTAA
modifications: in pFLuc; U1_Gua_1 wt in pFLuc
notes: DHFR exon 2 5′ splice site U1 site linked with xpt-guanine aptamer, 149 nt upstream of SV40 early poly(A) in pFLuc
fold increase of luciferase activity upon guanine treatment ([1]; SV40 early poly(A) signal): 2.4 fold

B4: U1_Gua_3: U1 site linked with xpt-guanine aptamer, 74 nt upstream of SV40 early poly(A) in pFLuc (nucleic acid)
DNA: TCATAAAGGCCAAGAAGGGCGGAAAGATCGCCGTGTAAGCCATACCACATTTGTAGAGGTTTTACTTGCTTTAAAAAACCTCCCACACCTCCCCCTGAACCTGAAACATAAAATGAATGCAATTGTAAGGTAATGTATAATCGCGTGGATATGGCACGCAAGTTTCTACCGGGCACCGTAAATGTCCGACTACATTACTGTTGTTAACTTGTTTATTGCAGCTTATAATGGTTACAAATAAAGCAATAGCATCACAAATTTCACAAATAAAGCATTTTTTTCACTGCATTCTAGTTGTGGTTTGTCCAAACTCATCAATGTATCTTAA
modifications: in pFLuc; U1_Gua_3 wt in pFLuc
notes: U1 site linked with xpt-guanine aptamer, 74 nt upstream of SV40 early poly(A) in pFLuc
fold increase of luciferase activity upon guanine treatment ([1]; SV40 early poly(A) signal): 1.7 fold

B5: wtU1_Gua_HBGPA: wild type U1 site with xpt-guanine aptamer in pFLuc_HBGPA (human beta globin polyA sequence) (nucleic acid)
DNA: TCATAAAGGCCAAGAAGGGCGGAAAGATCGCCGTGTAAGGATCCAAGCTTATCGATACCGTCGACCTCGAGGTAATGTATAATCGCGTGGATATGGCACGCAAGTTTCTACCGGGCACCGTAAATGTCCGACTACATTACGGCCCAGATCTAATTCACCCCACCAGTGCAGGCTGCCTATCAGAAAGTGGTGGCTGGTGTGGCTAATGCCCTGGCCCACAAGTATCACTAAGCTCGCTTTCTTGCTGTCCAATTTCTATTAAAGGTTCCTTTGTTCCCTAAGTCCAACTACTAAACTGGGGGATATTATGAAGGGCCTTGAGCATCTGGATTCTGCCTAATAAAAAACATTTATTTTCATTGCAATGATGTATTT
modifications: in pFLuc_HBGPA; wtU1_Gua_HBGPA
fold increase of luciferase activity upon guanine treatment ([1]; human beta globin polyA sequence (pFLuc_HBGPA)): 2.1 fold

B6: mutU1_Gua_HBGPA: mutant U1 site with xpt-guanine aptamer in pFLuc_HBGPA (nucleic acid)
DNA: B5 DNA with G71T, T73G, G77C
modifications: in pFLuc_HBGPA; mutU1_Gua_HBGPA
induction of luciferase activity upon guanine treatment (in words) ([1]; guanine vs untreated, human beta globin polyA sequence): didn't induce luciferase activity

B7: 4 copies of U1-theo_8_1: 4 copies of the U1_theo_8_1 sequence in tandem in the 3′ UTR of pRL-SV40 (nucleic acid)
DNA: TCAAATCGTTCGTTGAGCGAGTTCTCAAAAATGAACAATAATTCTAGAGCGGCCGCTTCGAGCAGACATGATAAGATACATTGATGAGTTTGGACAAACCAAACCCAGGTAAGTGATACCAGCCGAAAGGCCCTTGGCAGCACTTACCTGGACAACTAGAATGCAGTGAAAAAAGAGTTTGGACAAACCAAACCCAGGTAAGTGATACCAGCCGAAAGGCCCTTGGCAGCACTTACCTGGACAACTAGAATGCAGTGAAAAAAATGCGAGTTTGGACAAACCAAACCCAGGTAAGTGATACCAGCCGAAAGGCCCTTGGCAGCACTTACCTGGACAACTAGAATGCAGTGAAAAAAATGCTTTATTTGTGAGAGTTTGGACAAACCAAACCCAGGTAAGTGATACCAGCCGAAAGGCCCTTGGCAGCACTTACCTGGACAACTAGAATGCAGTGAAAAAAATGCTTTATTTGTGAAATTTGTGATGCTATTGCTTTATTTGTAACCATTATAAGCTGCAATAAACAAGTTAACAACAAC
modifications: in pRL-SV40 3′ UTR; 4xU1_theo_8_1 in pRL-SV40
reduction of basal level expression compared to single copy of U1_theo_8_1 ([2]; no theophylline): 83%
change of luciferase activity after theophylline treatment (in words) ([2]; with vs without theophylline): increased the luciferase activity in a dose-dependent manner
maximal induction fold of luciferase activity ([3]; 6 mM theophylline): 4.3 fold
luciferase activity relative to 87-9 SL control vector ([3]; upon theophylline treatment, maximal at 6 mM): 40%
